Experimental data published in the supplement of paper PMC12455559.
± gives the standard deviation of the averaged measurements.

Experiments:
[1] = PET hydrolysis, aromatic products released after 48 h (umol product/mg enzyme); higher = more PET depolymerization activity
Method in brief: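 Reactions ran in sealed plates without shaking for 48 h at 40 or 60 °C. Each held 3.5 mg amorphous PET film or crystalline PET powder, 450 μL buffer and 5 μg (50 μL) of tagless, SUMO-cleaved, nickel-purified candidate enzyme. Buffers were 50 mM NaCitrate at pH 4.5 or 5.5, 50 mM NaPhosphate at pH 6.5 or 7.5, and glycine at pH 8.5. The supernatant's aromatic product, read at 260 and 280 nm against buffer blanks, gives PET hydrolysis activity per mg enzyme.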

[2] = purified protein yield per well (BCA); higher = higher soluble expression
Method in brief: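 Candidate enzymes were produced in E. coli C41(DE3) grown in 2 mL autoinduction cultures containing 100 µg/mL kanamycin, first at 37 °C for 2 h and then at 18 °C for 40 h. After cell lysis, protein was captured on Ni-charged magnetic beads and freed by SUMO protease cleavage on an OT-2 robot. Purified protein yield per well was read with the Pierce Rapid Gold BCA kit. Values under 25 ug (0.1 mg/mL) fall below the detection threshold.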

[3] = melting temperature (DSF); higher = more thermostable
Method in brief: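 After expression in E. coli C41(DE3), the candidate enzymes were bound to nickel beads and released with SUMO protease. Their melting temperature was found by differential scanning fluorimetry with Sypro Orange on a Bio-Rad CFX96. Each sealed PCR plate well held 45 μL enzyme (0 to 0.3 mg/mL) plus 5 μL 5X dye, and fluorescence was read for 250 cycles from 25 °C at 0.3 °C per cycle (ramp 0.3 °C/s).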

[4] = substrate: aFilm, 40 °C, pH 4.5
[5] = substrate: aFilm, 40 °C, pH 5.5
[6] = substrate: aFilm, 40 °C, pH 6.5
[7] = substrate: aFilm, 40 °C, pH 7.5
[8] = substrate: aFilm, 60 °C, pH 4.5
[9] = substrate: aFilm, 60 °C, pH 5.5
[10] = substrate: aFilm, 60 °C, pH 6.5
[11] = substrate: aFilm, 60 °C, pH 7.5
[12] = substrate: cryPow, 40 °C, pH 4.5
[13] = substrate: cryPow, 40 °C, pH 5.5
[14] = substrate: cryPow, 40 °C, pH 6.5
[15] = substrate: cryPow, 40 °C, pH 7.5
[16] = substrate: cryPow, 60 °C, pH 4.5
[17] = substrate: cryPow, 60 °C, pH 5.5
[18] = substrate: cryPow, 60 °C, pH 6.5
[19] = substrate: cryPow, 60 °C, pH 7.5

Row | Sequence | PET hydrolysis [1, 4] | PET hydrolysis [1, 5] | PET hydrolysis [1, 6] | PET hydrolysis [1, 7] | PET hydrolysis [1, 8] | PET hydrolysis [1, 9] | PET hydrolysis [1, 10] | PET hydrolysis [1, 11] | PET hydrolysis [1, 12] | PET hydrolysis [1, 13] | PET hydrolysis [1, 14] | PET hydrolysis [1, 15] | PET hydrolysis [1, 16] | PET hydrolysis [1, 17] | PET hydrolysis [1, 18] | PET hydrolysis [1, 19] | purified protein yield per well [2] [µg] | melting temperature [3] [C]
1 | ADNPYQRGPDPTRTSVAAVNGPFANTSVSVPTGYGFNGGRIYYPTDTSQGTFGAIAISPGYTALFSAELAWMGPWLASHGFVVIGIETNSRNDFDTARGTQLLAALDYLTQQSPVRDRVDPNRLAVSGHSMGGGGALSAAIRRSSLKAVVGIAPYSPSSNLANDRVPTMVFSGQADTVVTPSYATGLYNSLPATTESVYLEVAGADHGFMVGRSNPVMIRTMLPFVKMFIDNDTRYSQFLCPLLDSSGVVTYRSTCPLLPPAPTPSNTGTTPPTTPPVTPTTPPSSASEIVGVQSGRCIDVPNASRNNGTRVQLYDCNRQANQSWTYTSGKQLQVYGNMCLDAAGSGNGAAVQIYSCHSQTNQQWNVNSNGTISGVQSGRCLDVWSTANGAQIQLYDCHGGANQRFNLVPRT [ESM058] | < 3 | < 3 | < 3 | < 3 | < 3 | < 3 | < 3 | < 3 | 5.5 ± 0.71 | 12.5 ± 0.71 | 11 | 4.5 ± 0.71 | < 3 | < 3 | < 3 | < 3 | 281 | 59.5
2 | ADNPYQRGPDPTRTSVATENGPFANTSVSVPTGYGFNGGRIYYPTDTSQGTFGAIAISPGYTALFSAELAWMGPWLASHGFVVIGIETNSRNDFDTARGTQLLAALDYLTQQSPVRDRVDPTRLAVAGHSMGGGGALSAATRRSSLKAAVGIAPYSPSSNLANDRVPTMIFSGQADTVVTPSYATSLYNSLPSTTESIYLEVAGADHGFMVGRSNPVMIRTMLPFLKMFIDNDARYSQFLCPLLDSSGVVTSRSTCPLLPSTPTTPPTDPPTDPPTNPPGSANEIVGTQSGRCVDVPNAATTNGTRVQLYTCNKQTNQAWTYTSGKQLQVYGTMCLDAAGSGNGAAVQIYSCHSQTNQQWNVNSNGTISNVQSGRCLDVWSTSNGAQIQLYDCHGQTNQQFRLAALGGGTQTPTPTPTTPPPTGGACDLPSSYRWSSTG [ESM143] |  |  |  |  |  |  |  |  | < 3 | < 3 | < 3 | < 3 | < 3 | < 3 | < 3 | < 3 | 55.9 | 55.9
3 | ADNPYQRGPDPTRTSVATERGPFANTSVSVPSGYGFNGGRIYYPTDTSQGTFGAIAISPGYTALFSAELAWMGPWLASHGFVVIGIETNSRNDFDTARGTQLLAALDYLTQQSPVRDRIDPNRLAVSGHSMGGGGALSAAMRRSSLKAVVGIAPYSPSSNLANDRVPTMIFSGQADTVVTPSYAMGLYNSIPAGTKSAYLEVAGGDHGFMVGRSNPVLIRTMLPFLKIFIDNDARYSQFLCPLLDNSGVVTYRSTCPFLPTTPTTPPPTG [ESM065] |  |  |  |  |  |  |  |  | 21 | 29 | 7 | < 3 | < 3 | 4 | < 3 | < 3 | 250 | 67.9
4 | ADNPYQRGPDPTRTSVTAENGPFANTSVSVPTGYGFNGGRIYYPTDTSQGTFGAIAISPGYTALFSAELAWMGPWLASHGFVVIGIETNSRNDFDTARGTQLLAALDYLTQQSPIRDRVDPNRLAVAGHSMGGGGALSAASRRSSLRAVVGIAPYSPSSNLANDRVPTMIFSGQADTVVTPSYATGLYNSLPATTKSVYLEVAGADHGFMVGRSNPVMIRTMLPFVKMFIDNDARYSQFLCPLLDSSGVVTYRSTCPLLPSTPTTPTPTPTDPPTVPPGSANEIVGTQSGRCVDVPNASRNNGTRVQLYDCNKQTNQAWTYTATKQLQVYGNMCLDAAGSGNGAAVQIYSCHSQTNQQWNVNSNGTISSVQSGRCLDAWSTTNGAQIQLYDCHGQTNQQFRLVSLAR [ESM161] |  |  |  |  |  |  |  |  | 10 | 13 | 21 | 6 | < 3 | < 3 | < 3 | < 3 | 137 | 63.1
5 | ADNPYQRGPDPTRTSVTAVNGPFANTSVSVPTGHGFNGGRIYYPTDTSQGTFGAIAISPGYTALFSAELAWMGPWLASHGFVVIGIETNSRNDFDTARGTQLLAALDYLTQQSPVRDRVDPSRLAVSGHSMGGGGALSAAMRRASLKAVVGITPYSPSSNLANDRVPTMIISGQADTVVTPSYALGLYNSIPATTESVYLEVAGGDHGFMVGRSNPVLVRTMLPFLKMFIDNDTRYSQFLCPLLDNSGVVTYRSTCPLLPTDPTTPPTGTPTPTPTTPAPTTPPPTTPPGSASEIRGTQSNRCIDVPNASRNNGTRVQLYDCNRQTNQAWTYTANKQLQVYGNMC [ESM106] | < 3 | 1.5 ± 2.1 | 3.5 ± 0.71 | < 3 | < 3 | < 3 | < 3 | < 3 | 9 ± 4.2 | 24 ± 5.7 | 28 ± 2.8 | 19 ± 1.4 | < 3 | 2 ± 2.8 | 4.5 ± 0.71 | < 3 | 392 | 62.2
6 | ADNPYQRGPDPTRTSVTAVNGPFANTSVSVPTGQGFNGGRIYYPTDTSQGTFGAVAISPGYTALFSAELAWMGPWLASHGFVVIGIETNSTNDFDTARGTQLLAALDYLTQRSSVRDRVDPNRLAVSGHSMGGGGALSAAARRSSLKAVVGITPYSPSSNLANVRVPTMVVSGQADTVVTPSYALNLYNSLPSTTESVYLEVAGGDHGFMVGRSNPVLVRTMLPFLKMFVDNDTRYSQFLCPLMDNSGVVTYRSTCPLLPTPTTPPPTTGPTTPPPTTPPTTTPPPSGSTGQIVGTQSNRCIDVPNSSRNNGTRVQLYDCHGQANQTWTYDSSTKQLRVYGDMCLDASGSGNGAAVQIYSCHNQTNQQWNINSNGTISGVQSNRCLDAWSTNNGAQIQLYDCHGQTNQQFRIRA [TEP168] | < 3 | < 3 | < 3 | < 3 | < 3 | < 3 | < 3 | < 3 | 4 | 9 | 9 ± 1.4 | 4.5 ± 0.71 | < 3 | < 3 | < 3 | < 3 | 213 | 65.2
7 | ADNPYQRGPDPTRTSVTAVNGPFANTSVSVPTGYGFNGGRIYYPTDTSQGTFGAIAISPGYTALFSAELAWMGPWLASHGFVVIGIETNSRNDFDTARGTQLLAALDYLTQQSPVRDRVDPNRLAVAGHSMGGGGALSAAIRRPSLKAVVGIAPYSPSSNLANDRVPTMIFSGQADTVVTPSYATGLYNSLPATTESVYLEVAGADHGFMVGRSNPVMVRTMLPFVKMFIDDDARYSQFLCPLLDNSGVVTYRSTCPLLPTTPTTPPTGTPTPTPTPTQTTPPPGSASQIVGTQSGRCVDVPNASTTNGTRVQLYDCNRQTNQAWTYTSTKQLQVYGTMCLDAAGTGNGAAVQIYSCHSQTNQQWNVNSNGTISSVQSGRCLDAWSTANGAQIQLYDCHGQTNQQFRLAALA [ESM095] |  |  |  |  |  |  |  |  | 11 | 21 | 22 | 10 | < 3 | < 3 | < 3 | < 3 | 147 | 63.7
8 | ADNPYQRGPDPTRTSVTAVNGPFANTSVSVPTGYGFNGGRIYYPTDTSQGTFGAIAISPGYTALFSAELAWMGPWLASHGFVVIGIETNSRNDFDTARGTQLLAALDYLTQQSPVRDRVDPNRLAVAGHSMGGGGALSAATRRPSLKAVVGIAPYSPSSNLANDRVPTMIFAGQADTVVTPSYATGLYNSLPATTESVYVEVAGADHGFMVGRSNPVMVRTMLPFVKMFIDNDTRYSQFLCPLLDSSGVVTYRSTCPLLPSTPTPTDPPTPTDPPTVPPGSANEIVGTQSGRCVDVPNASRTNGTRVQLYGCNKQTNQAWTYTSSKQLQVYGNMCLDAAGTGNGAAVQIYSCHNQTNQQWNVNSNGTISNVQSGRCLDAWSTANGAQIQLYDCHGQTNQQFRLAALAG [ESM069] | < 3 | 4 | < 3 | < 3 | < 3 | < 3 | < 3 | < 3 | 10.5 ± 2.1 | 29 ± 2.8 | 42 | 17 ± 1.4 | < 3 | 4.5 ± 0.71 | 4 | < 3 | 213 | 63.4
9 | ADNPYQRGPDPTRTSVTAVNGPFANTSVSVPTGYGFNGGRIYYPTDTSQGTFGAIAISPGYTALFSAELAWMGPWLASHGFVVIGIETNSRNDFDTARGTQLLAALDYLTQQSPVRDRVDPNRLAVAGHSMGGGGALSAATRRSSLKAVVGIAPYSPSSNLANDRVPTMIFAGQADTVVTPSYATNLYNSLPTTTESVYLEVAGADHGFMVGRSNPVMVRTMLPFVKMFVDNDTRYSQFLCPLADSSGVVTYRSTCPLLPSTPTTPTATPTNTPTPTASPTVPPGSASQIVGTQSGRCIDVPNASHTNGTRVALYDCNRQSNQSWTYTSTKQLQVYGTMCLDAAGSGNGAAVQIYGCHSQTNQQWNVNSNGTISSVQSGRCLDVWSTANGAQVQLYDCHGQTNQQFRLVSLAR [ESM137] |  |  |  |  |  |  |  |  | 10 | 18 | 17 | 8 | < 3 | < 3 | < 3 | < 3 | 140 | 62.2
10 | ADNPYQRGPDPTRTSVTAVNGPFANTSVSVPTGYGFNGGRIYYPTDTSQGTFGAIAISPGYTALFSAELAWMGPWLASHGFVVIGIETNSRNDFDTARGTQLLAALDYLTQQSPVRDRVDPNRLAVSGHSMGGGGALSAAMRRSSLKAVVGITPYSPSSNLANDRVPTMIISGQADTVVTPSYALGLYNSIPTTTKSVYLEVAGGDHGFMVGRSNPVMVRTMLPFVKMFIDNDARYSQFLCPLLDNSGVVTYRSTCPLLPTTPPTGTPTPTPTNSPTTPPPGSASGIVGAQSGRCIDVPNASRSNGTRVQLYDCNRQSNQSWTYTANKQLRVYGDMCLDAAGSGNGAAVQIYSCHNQTNQQWNVNSNGTITGVQSGRCLDVWSTSNGAQVQLYDCHGQANQQFRLAPLA [ESM059] | < 3 | 2 ± 2.8 | 1.5 ± 2.1 | < 3 | < 3 | < 3 | < 3 | < 3 | 10 | 21 ± 1.4 | 26 | 21.5 ± 2.1 | < 3 | 5 | 4 | 2 ± 2.8 | 311 | 65.8
